The chains are these.
B1: NLV3 TCR beta chain (CDR3β only) (parent)
chain: ASSPTGGSPSPLH
partner: NLCPMVATV
B2: NLV3 TCR beta chain (CDR3β only) (parent)
chain: ASSPTGGSPSPLH

Variants of B1 are the subject of the first test. As to the kind of experiment: T-Switch: Jurkat TCRβ−/− cells expressing a CDR3 saturation-mutagenesis library, stained with two peptide-HLA-A*02:01 tetramers (original and novel peptide) plus anti-CD3, FACS-sorted into four gates, gDNA sequenced. The settings on record: with HLA-A*02:01 with peptide … (NLV 2-1, the novel peptide), tetramers 1 µg/mL, 30 min on ice, SP, DP and SW gates expanded about 10 days between rounds ('two to three rounds of selection' in the Methods), gate SW: higher = more of the variant in the gate that binds the novel peptide and not the original one = switched binding. Fold enrichment of the CDR3 variant in one FACS gate of a two-tetramer stain, unresolved parent, parent is a CDR3 fragment, scale: fold enrichment, numbering: sequential-on-construct, sequence starts at 1.
As to […] (CDR3 as printed); P9N derived by comparing it with the table's wild-type CDR3 ASSPTGGSPSPLH, the enrichment stood at 0.

Regarding […] (CDR3 as printed); S8D derived by comparing it with the table's wild-type CDR3 ASSPTGGSPSPLH, the enrichment came out at 0.

With […] (CDR3 as printed); L12Q derived by comparing it with the table's wild-type CDR3 ASSPTGGSPSPLH, the enrichment was 0.

As for […] (CDR3 as printed); T5W derived by comparing it with the table's wild-type CDR3 ASSPTGGSPSPLH, the enrichment was determined as 0.

As for […] (CDR3 as printed); S8M derived by comparing it with the table's wild-type CDR3 ASSPTGGSPSPLH, the enrichment came to 0.

As for […] (CDR3 as printed); T5I derived by comparing it with the table's wild-type CDR3 ASSPTGGSPSPLH, the enrichment was found to be 0.

[…] (CDR3 as printed); P11F derived by comparing it with the table's wild-type CDR3 ASSPTGGSPSPLH: the enrichment was 0.

As to […] (CDR3 as printed); P9R derived by comparing it with the table's wild-type CDR3 ASSPTGGSPSPLH, the enrichment was 0.

With […] (CDR3 as printed); H13M derived by comparing it with the table's wild-type CDR3 ASSPTGGSPSPLH, the enrichment was found to be 0.

For […] (CDR3 as printed); L12V derived by comparing it with the table's wild-type CDR3 ASSPTGGSPSPLH, the enrichment is 0.

For the variant […] (CDR3 as printed); S8I derived by comparing it with the table's wild-type CDR3 ASSPTGGSPSPLH, the enrichment worked out at 0.

As for […] (CDR3 as printed); S3K derived by comparing it with the table's wild-type CDR3 ASSPTGGSPSPLH, the enrichment was determined as 0.

Consider […] (CDR3 as printed); S8C derived by comparing it with the table's wild-type CDR3 ASSPTGGSPSPLH, for which the enrichment amounted to 0.

Turning to […] (CDR3 as printed); A1C derived by comparing it with the table's wild-type CDR3 ASSPTGGSPSPLH, the enrichment was 0.

With […] (CDR3 as printed); H13L derived by comparing it with the table's wild-type CDR3 ASSPTGGSPSPLH, the enrichment is 0.

Consider […] (CDR3 as printed); G6M derived by comparing it with the table's wild-type CDR3 ASSPTGGSPSPLH, for which the enrichment amounted to 0.

For […] (CDR3 as printed); G7T derived by comparing it with the table's wild-type CDR3 ASSPTGGSPSPLH, the enrichment turned out to be 0.

Take […] (CDR3 as printed); S3D derived by comparing it with the table's wild-type CDR3 ASSPTGGSPSPLH: the enrichment was found to be 0.

As to […] (CDR3 as printed); P9A derived by comparing it with the table's wild-type CDR3 ASSPTGGSPSPLH, the enrichment turned out to be 0.

For […] (CDR3 as printed); A1F derived by comparing it with the table's wild-type CDR3 ASSPTGGSPSPLH, the enrichment was found to be 0.

Regarding […] (CDR3 as printed); G6A derived by comparing it with the table's wild-type CDR3 ASSPTGGSPSPLH, the enrichment was determined as 0.

For the variant […] (CDR3 as printed); S10C derived by comparing it with the table's wild-type CDR3 ASSPTGGSPSPLH, the enrichment was found to be 0.

On to […] (CDR3 as printed); G7R derived by comparing it with the table's wild-type CDR3 ASSPTGGSPSPLH, for which the enrichment was 0.

As for […] (CDR3 as printed); G6I derived by comparing it with the table's wild-type CDR3 ASSPTGGSPSPLH, the enrichment was determined as 0.

Take […] (CDR3 as printed); S10V derived by comparing it with the table's wild-type CDR3 ASSPTGGSPSPLH: the enrichment is 0.

Variants of B2 are the subject of a further test. Described as above. The settings on record: with both tetramers (double-negative gate, binds neither): HLA-A*02:01 with … and with …, tetramers 1 µg/mL, 30 min on ice, SP, DP and SW gates expanded about 10 days between rounds ('two to three rounds of selection' in the Methods), gate DN: OPPOSITE: higher = more of the variant in the gate that binds neither peptide = LESS binding (or no expression; inferred). Fold enrichment of the CDR3 variant in one FACS gate of a two-tetram, unresolved parent, parent is a CDR3 fragment, zero in all gates, scale: fold enrichment, numbering: sequential-on-construct, ….
On to […] (CDR3 as printed); S2L derived by comparing it with the table's wild-type CDR3 ASSPTGGSPSPLH, for which the enrichment is 0.

As for […] (CDR3 as printed); G7P derived by comparing it with the table's wild-type CDR3 ASSPTGGSPSPLH, the enrichment was determined as 0.

The test is the same for the next values; noted with them: with both tetramers (double-positive gate): HLA-A*02:01 with … and with …, tetramers 1 µg/mL, 30 min on ice, SP, DP and SW gates expanded about 10 days between rounds ('two to three rounds of selection' in the Methods), gate DP: higher = more of the variant in the gate that binds both peptides. Fold enrichment of the CDR3 variant in one FACS gate of a two-tetramer stain. SP/DP/SW gates were expanded and re-sorted bef, unresolved parent, parent is a CDR3 fragment, zero in all gates, scale: fold enrichment, numbering: sequential-on-construct, sequence starts at 1.
[…] (CDR3 as printed); S2L derived by comparing it with the table's wild-type CDR3 ASSPTGGSPSPLH: the enrichment is 0.

As for […] (CDR3 as printed); G7P derived by comparing it with the table's wild-type CDR3 ASSPTGGSPSPLH, the enrichment amounted to 0.

Staying with this test, now noted: with both tetramers (double-negative gate, binds neither): HLA-A*02:01 with … and with …, tetramers 1 µg/mL, 30 min on ice, SP, DP and SW gates expanded about 10 days between rounds ('two to three rounds of selection' in the Methods), gate DN: OPPOSITE: higher = more of the variant in the gate that binds neither peptide = LESS binding (or no expression; inferred). Fold enrichment of the CDR3 variant in one FACS gate of a two-tetram, unresolved parent, parent is a CDR3 fragment, scale: fold enrichment, numbering: sequential-on-construct, sequence starts at 1.
With […] (CDR3 as printed); S2I derived by comparing it with the table's wild-type CDR3 ASSPTGGSPSPLH, the enrichment came out at 0.694.

On to […] (CDR3 as printed); P11S derived by comparing it with the table's wild-type CDR3 ASSPTGGSPSPLH, for which the enrichment came out at 1.52.

As for […] (CDR3 as printed); A1F derived by comparing it with the table's wild-type CDR3 ASSPTGGSPSPLH, the enrichment stood at 0.897.

Take […] (CDR3 as printed); H13M derived by comparing it with the table's wild-type CDR3 ASSPTGGSPSPLH: the enrichment came to 0.598.

As to […] (CDR3 as printed); G6I derived by comparing it with the table's wild-type CDR3 ASSPTGGSPSPLH, the enrichment was found to be 1.08.

For the variant […] (CDR3 as printed); P11E derived by comparing it with the table's wild-type CDR3 ASSPTGGSPSPLH, the enrichment was 0.639.

Consider […] (CDR3 as printed); S10T derived by comparing it with the table's wild-type CDR3 ASSPTGGSPSPLH, for which the enrichment worked out at 1.08.

The same test, now with this note: with both tetramers (double-positive gate): HLA-A*02:01 with … and with …, tetramers 1 µg/mL, 30 min on ice, SP, DP and SW gates expanded about 10 days between rounds ('two to three rounds of selection' in the Methods), gate DP: higher = more of the variant in the gate that binds both peptides. Fold enrichment of the CDR3 variant in one FACS gate of a two-tetramer stain. SP/DP/SW gates were expanded and re-sorted bef, unresolved parent, parent is a CDR3 fragment, scale: fold enrichment, numbering: sequential-on-construct, sequence starts at 1.
For […] (CDR3 as printed); S2I derived by comparing it with the table's wild-type CDR3 ASSPTGGSPSPLH, the enrichment came to 0.

Consider […] (CDR3 as printed); P11S derived by comparing it with the table's wild-type CDR3 ASSPTGGSPSPLH, for which the enrichment was 0.

Regarding […] (CDR3 as printed); A1F derived by comparing it with the table's wild-type CDR3 ASSPTGGSPSPLH, the enrichment is 0.

Regarding […] (CDR3 as printed); H13M derived by comparing it with the table's wild-type CDR3 ASSPTGGSPSPLH, the enrichment worked out at 0.

[…] (CDR3 as printed); G6I derived by comparing it with the table's wild-type CDR3 ASSPTGGSPSPLH: the enrichment worked out at 0.

With […] (CDR3 as printed); P11E derived by comparing it with the table's wild-type CDR3 ASSPTGGSPSPLH, the enrichment amounted to 0.

On to […] (CDR3 as printed); S10T derived by comparing it with the table's wild-type CDR3 ASSPTGGSPSPLH, for which the enrichment turned out to be 0.
